The Human Domainome abundance scans (Beltran et al. 2025)
± gives the uncertainty stated by the source.

B1: POU domain, class 3, transcription factor 2, residues 356 to 411; numbered along this chain, P20265 (parent)
chain: KKRTSIEVSVKGALESHFLKCPKPSAQEITSLADSLQLEKEVVRVWFCNRRQKEKR

Variants of: B1
Assay: abundance fitness (aPCA) (normalised: wild type 0, dead -1); higher = more abundant; growth selection in yeast, the domain comes from the species named
Details: Homo sapiens

KKRTSIEVHVKGALESHFLKCPKPSAQEITSLADSLQLEKEVVRVWFCNRRQKEKR [S9H] and KKRTSIEVWVKGALESHFLKCPKPSAQEITSLADSLQLEKEVVRVWFCNRRQKEKR [S9W] are within error of each other in abundance fitness: 0.057 ± 0.24 for the first, 0.004 ± 0.11 for the second.

Going from KKRTSIEVVVKGALESHFLKCPKPSAQEITSLADSLQLEKEVVRVWFCNRRQKEKR [S9V] to KKRTSIEVTVKGALESHFLKCPKPSAQEITSLADSLQLEKEVVRVWFCNRRQKEKR [S9T], the abundance fitness rises from -0.123 ± 0.083 to 0.09 ± 0.091.

KKRTSIEVIVKGALESHFLKCPKPSAQEITSLADSLQLEKEVVRVWFCNRRQKEKR [S9I] and KKRTSIEVFVKGALESHFLKCPKPSAQEITSLADSLQLEKEVVRVWFCNRRQKEKR [S9F] are within error of each other in abundance fitness: -0.197 ± 0.17 for the first, -0.366 ± 0.1 for the second.

KKRTSIEVPVKGALESHFLKCPKPSAQEITSLADSLQLEKEVVRVWFCNRRQKEKR [S9P] and KKRTSIEVLVKGALESHFLKCPKPSAQEITSLADSLQLEKEVVRVWFCNRRQKEKR [S9L] are within error of each other in abundance fitness: -0.041 ± 0.19 for the first, -0.153 ± 0.11 for the second.

Going from KKRTSIEVEVKGALESHFLKCPKPSAQEITSLADSLQLEKEVVRVWFCNRRQKEKR [S9E] to KKRTSIEVYVKGALESHFLKCPKPSAQEITSLADSLQLEKEVVRVWFCNRRQKEKR [S9Y], the abundance fitness falls from 0.046 ± 0.12 to -0.267 ± 0.19.

KKRTSIEVKVKGALESHFLKCPKPSAQEITSLADSLQLEKEVVRVWFCNRRQKEKR [S9K] and KKRTSIEVRVKGALESHFLKCPKPSAQEITSLADSLQLEKEVVRVWFCNRRQKEKR [S9R] are within error of each other in abundance fitness: 0.109 ± 0.12 for the first, 0.108 ± 0.1 for the second.

KKRTSIEVGVKGALESHFLKCPKPSAQEITSLADSLQLEKEVVRVWFCNRRQKEKR [S9G] and KKRTSIEVMVKGALESHFLKCPKPSAQEITSLADSLQLEKEVVRVWFCNRRQKEKR [S9M] are within error of each other in abundance fitness: 0.046 ± 0.074 for the first, -0.025 ± 0.14 for the second.

KKRTSIEVQVKGALESHFLKCPKPSAQEITSLADSLQLEKEVVRVWFCNRRQKEKR [S9Q] and KKRTSIEVNVKGALESHFLKCPKPSAQEITSLADSLQLEKEVVRVWFCNRRQKEKR [S9N] are within error of each other in abundance fitness: 0.1 ± 0.21 for the first, -0.198 ± 0.12 for the second.

KKRTSIEVSVKGCLESHFLKCPKPSAQEITSLADSLQLEKEVVRVWFCNRRQKEKR [A13C] and KKRTSIEVSVKGELESHFLKCPKPSAQEITSLADSLQLEKEVVRVWFCNRRQKEKR [A13E] are within error of each other in abundance fitness: -0.044 ± 0.11 for the first, -0.067 ± 0.1 for the second.

Going from KKRTSIEVSVKGDLESHFLKCPKPSAQEITSLADSLQLEKEVVRVWFCNRRQKEKR [A13D] to KKRTSIEVSVKGFLESHFLKCPKPSAQEITSLADSLQLEKEVVRVWFCNRRQKEKR [A13F], the abundance fitness rises from -0.356 ± 0.12 to -0.019 ± 0.19.

KKRTSITVSVKGALESHFLKCPKPSAQEITSLADSLQLEKEVVRVWFCNRRQKEKR [E7T] and KKRTSINVSVKGALESHFLKCPKPSAQEITSLADSLQLEKEVVRVWFCNRRQKEKR [E7N] are within error of each other in abundance fitness: 0.221 ± 0.06 for the first, 0.138 ± 0.079 for the second.

First: KKRTSIYVSVKGALESHFLKCPKPSAQEITSLADSLQLEKEVVRVWFCNRRQKEKR [E7Y]
Second: KKRTSISVSVKGALESHFLKCPKPSAQEITSLADSLQLEKEVVRVWFCNRRQKEKR [E7S]
The abundance fitness of the first is lower: -0.358 ± 0.072 for the first, 0.191 ± 0.058 for the second.

Going from KKRTSIVVSVKGALESHFLKCPKPSAQEITSLADSLQLEKEVVRVWFCNRRQKEKR [E7V] to KKRTSIRVSVKGALESHFLKCPKPSAQEITSLADSLQLEKEVVRVWFCNRRQKEKR [E7R], the abundance fitness rises from -0.21 ± 0.071 to -0.014 ± 0.066.

First: KKRTSIWVSVKGALESHFLKCPKPSAQEITSLADSLQLEKEVVRVWFCNRRQKEKR [E7W]
Second: KKRTSIEVSIKGALESHFLKCPKPSAQEITSLADSLQLEKEVVRVWFCNRRQKEKR [V10I]
The abundance fitness of the first is lower: -0.242 ± 0.1 for the first, -0.013 ± 0.12 for the second.

KKRTSIEVSTKGALESHFLKCPKPSAQEITSLADSLQLEKEVVRVWFCNRRQKEKR [V10T] and KKRTSIEVSQKGALESHFLKCPKPSAQEITSLADSLQLEKEVVRVWFCNRRQKEKR [V10Q] are within error of each other in abundance fitness: 0.046 ± 0.11 for the first, -0.13 ± 0.17 for the second.

Going from KKRTSIEVSAKGALESHFLKCPKPSAQEITSLADSLQLEKEVVRVWFCNRRQKEKR [V10A] to KKRTSIEVSGKGALESHFLKCPKPSAQEITSLADSLQLEKEVVRVWFCNRRQKEKR [V10G], the abundance fitness falls from -0.036 ± 0.08 to -0.318 ± 0.077.

First: KKRTSIEVSLKGALESHFLKCPKPSAQEITSLADSLQLEKEVVRVWFCNRRQKEKR [V10L]
Second: KKRTSIEVSPKGALESHFLKCPKPSAQEITSLADSLQLEKEVVRVWFCNRRQKEKR [V10P]
The abundance fitness of the first is higher: -0.134 ± 0.091 for the first, -0.554 ± 0.17 for the second.

KKRTSIEVSRKGALESHFLKCPKPSAQEITSLADSLQLEKEVVRVWFCNRRQKEKR [V10R] and KKRTSIEVSMKGALESHFLKCPKPSAQEITSLADSLQLEKEVVRVWFCNRRQKEKR [V10M] are within error of each other in abundance fitness: -0.266 ± 0.09 for the first, -0.134 ± 0.16 for the second.

Compared with KKRTSIEVSKKGALESHFLKCPKPSAQEITSLADSLQLEKEVVRVWFCNRRQKEKR [V10K], KKRTSIEVSCKGALESHFLKCPKPSAQEITSLADSLQLEKEVVRVWFCNRRQKEKR [V10C] is lower in abundance fitness: 0.041 ± 0.12 for the first, -0.294 ± 0.14 for the second.

First: KKRTSIEVSFKGALESHFLKCPKPSAQEITSLADSLQLEKEVVRVWFCNRRQKEKR [V10F]
Second: KKRTSIEVSEKGALESHFLKCPKPSAQEITSLADSLQLEKEVVRVWFCNRRQKEKR [V10E]
The abundance fitness of the first is lower: -0.568 ± 0.21 for the first, -0.068 ± 0.13 for the second.

KKRTSIEVSHKGALESHFLKCPKPSAQEITSLADSLQLEKEVVRVWFCNRRQKEKR [V10H] and KKRTSIEVSWKGALESHFLKCPKPSAQEITSLADSLQLEKEVVRVWFCNRRQKEKR [V10W] are within error of each other in abundance fitness: -0.095 ± 0.24 for the first, -0.19 ± 0.1 for the second.

KKRTSIEVSVIGALESHFLKCPKPSAQEITSLADSLQLEKEVVRVWFCNRRQKEKR [K11I] and KKRTSIEVSVDGALESHFLKCPKPSAQEITSLADSLQLEKEVVRVWFCNRRQKEKR [K11D] are within error of each other in abundance fitness: 0.074 ± 0.13 for the first, 0.099 ± 0.13 for the second.

KKRTSIEVSVVGALESHFLKCPKPSAQEITSLADSLQLEKEVVRVWFCNRRQKEKR [K11V] and KKRTSIEVSVYGALESHFLKCPKPSAQEITSLADSLQLEKEVVRVWFCNRRQKEKR [K11Y] are within error of each other in abundance fitness: 0.026 ± 0.084 for the first, -0.239 ± 0.25 for the second.

KKRTSIEVSVMGALESHFLKCPKPSAQEITSLADSLQLEKEVVRVWFCNRRQKEKR [K11M] showed an abundance fitness of -0.041 ± 0.12.
